Data on ten molecules can be found in patent US20140112930A1 (published 2014).

Changes are numbered by the printed parent chain.

The target of assay [1] is T1, hAng-1-WT (human, UniProt Q15389 20-498, limits assumed).
T1 construct: a tag is not mentioned there; also called full-length wild-type human Ang-1
T1 sequence (looked up): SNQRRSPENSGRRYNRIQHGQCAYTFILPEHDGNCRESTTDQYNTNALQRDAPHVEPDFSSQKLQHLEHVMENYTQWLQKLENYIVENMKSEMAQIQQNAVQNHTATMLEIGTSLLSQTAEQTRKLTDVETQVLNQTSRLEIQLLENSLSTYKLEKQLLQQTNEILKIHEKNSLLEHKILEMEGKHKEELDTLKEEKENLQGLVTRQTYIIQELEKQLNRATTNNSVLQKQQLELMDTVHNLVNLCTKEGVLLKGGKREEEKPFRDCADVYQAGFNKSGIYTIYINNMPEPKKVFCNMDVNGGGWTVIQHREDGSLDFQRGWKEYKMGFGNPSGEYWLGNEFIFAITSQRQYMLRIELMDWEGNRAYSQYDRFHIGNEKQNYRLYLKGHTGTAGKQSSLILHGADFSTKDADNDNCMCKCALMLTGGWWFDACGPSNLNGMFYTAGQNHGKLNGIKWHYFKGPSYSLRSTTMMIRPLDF
Briefly: SPR, 1 uM blocker premixed with 10 nM hAng-1-WT, over hTie-2-mFc surface. Here is the method: (§1) In this experiment, a human Tie-2 full-length extracellular domain construct (hTie-2-mFc-ecto) was amine-coupled on a BIACORE™ chip to create a receptor coated surface. […] The equilibrated solutions were injected over the receptor surfaces at 5 μL/min for 5 minutes at 25° C.

Assay [2] concerns the target T1, hAng-1-WT. Briefly: SPR, 1 uM blocker premixed with 10 nM hAng-1-WT, over hTie-2-mFc surface; RU of hAng-1 bound. Here is the method:
as §1
For orientation: Surface plasmon resonance follows binding to a sensor surface in real time, without labels.

The target in assay [3] is T2, Dimeric Mouse Ang-2FD conjugated to human IgG1 (mouse (Mus musculus); human).
T2 construct: also called Mouse Ang-2FD-hFc
Briefly: SPR, captured Ab, RT. A digest of the protocol: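 Antibody captured on amine-coupled goat anti-mouse IgG, anti-human κ or anti-human IgG polyclonal surfaces on a CM5 chip; antigen binding and dissociation followed in real time at room temperature. KD and complex dissociation half-life derived by kinetic analysis.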

Assay [4] has as its target T2, Dimeric Mouse Ang-2FD conjugated to …. Briefly: SPR, captured Ab, 25°C. How it is done: (§2) Each selected antibody or control construct was captured at a flow rate of 40 μL/min for 1 minute on a goat anti-human kappa polyclonal antibody surface created through direct chemical coupling to a BIACORE™ chip to form a captured antibody surface.
For assay [5] the target is unchanged. Briefly: SPR, captured Ab, 37°C. How it is done: as §2
The next assay addresses T3, Human Ang-2FD-hFc (human).
T3 construct: also called dimeric human Ang-2FD; human Ang-2FD protein conjugated to human IgG
Briefly: blocking ELISA, 16.67 nM antibody, Ang-2FD-hFc to coated hTie-2-mFc. How it is done: (§3) The plate was then blocked with PBS (Irvine Scientific, Santa Ana, Calif.) containing 0.5% BSA (Sigma-Aldrich Corp., St. Louis, Mo.) for one hour at room temperature. […] Human, mouse or monkey Ang-2FD protein conjugated to human IgG (Ang-2FD-hFc) were added to final concentrations of 2 nM, 8 nM, or 2 nM respectively and incubated for one hour at room temperature. The antibody/Ang-2FD-Fc mixture was then added to the plate containing hTie-2-mFc and incubated for one hour at room temperature. Detection of Ang-2FD-hFc bound to hTie-2-mFc protein was determined with Horse-Radish Peroxidase (HRP) conjugated to a-human IgG antibody (Jackson Immuno Research Lab, West Grove, Pa.) and developed by standard colorimetric response using tetramethylbenzidine (TMB) substrate (BD Biosciences, San Jose, Calif.). Absorbance was read at OD₄₅₀ for 0.1 sec.

Another assay addresses T4, Mouse Ang-2FD-hFc (mouse (Mus musculus)).
T4 construct: also called dimeric mouse Ang-2FD
The description is as above. How it is done:
as §3

Another assay concerns the target T5, Monkey Ang-2FD-hFc (monkey (Macca fascicularis)).
T5 construct: also called dimeric monkey Ang-2FD
The description is as above. How it is done: as §3

Assay [6] has as its target T6, Biotin-hBA2 (human, biotinylated (sites not given)).
T6 construct: hBA2 consists of two dimers; also called biotinylated hBA2; human bow-Ang2
Briefly: blocking ELISA, biotin-hBA2 to hTie-2-His, mean of two experiments. How it is done:
as §3
For this experiment, human Tie-2 conjugated to a histidine tag (hTie-2-His; SEQ ID NO:526) was used in a similar fashion to the hTie-2-mFc described above. Antibody concentrations from 5 nM were serially diluted three-fold. […] An average IC₅₀ value for each antibody was calculated based on two separate experiments.
(In an ELISA, binding on a coated surface is turned into a signal by an enzyme label.)

Assay [7] deals with T6, Biotin-hBA2. Briefly: blocking ELISA, biotin-hBA2 to hTie-2.

T2 sequence (chain, as listed by the source limits assumed): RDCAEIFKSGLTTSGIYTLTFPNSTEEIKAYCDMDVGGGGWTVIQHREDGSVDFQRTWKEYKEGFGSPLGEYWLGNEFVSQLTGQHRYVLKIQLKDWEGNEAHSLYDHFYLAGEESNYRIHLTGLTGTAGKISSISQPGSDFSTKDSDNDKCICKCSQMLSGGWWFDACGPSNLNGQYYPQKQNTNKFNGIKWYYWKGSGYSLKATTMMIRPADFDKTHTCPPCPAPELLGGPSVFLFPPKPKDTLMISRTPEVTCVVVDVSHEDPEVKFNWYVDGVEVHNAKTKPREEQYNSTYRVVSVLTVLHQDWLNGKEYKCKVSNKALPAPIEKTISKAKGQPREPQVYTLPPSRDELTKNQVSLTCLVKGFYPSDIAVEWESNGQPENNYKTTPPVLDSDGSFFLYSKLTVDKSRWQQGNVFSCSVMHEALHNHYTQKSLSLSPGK
T6 sequence (chain, as listed by the source limits assumed): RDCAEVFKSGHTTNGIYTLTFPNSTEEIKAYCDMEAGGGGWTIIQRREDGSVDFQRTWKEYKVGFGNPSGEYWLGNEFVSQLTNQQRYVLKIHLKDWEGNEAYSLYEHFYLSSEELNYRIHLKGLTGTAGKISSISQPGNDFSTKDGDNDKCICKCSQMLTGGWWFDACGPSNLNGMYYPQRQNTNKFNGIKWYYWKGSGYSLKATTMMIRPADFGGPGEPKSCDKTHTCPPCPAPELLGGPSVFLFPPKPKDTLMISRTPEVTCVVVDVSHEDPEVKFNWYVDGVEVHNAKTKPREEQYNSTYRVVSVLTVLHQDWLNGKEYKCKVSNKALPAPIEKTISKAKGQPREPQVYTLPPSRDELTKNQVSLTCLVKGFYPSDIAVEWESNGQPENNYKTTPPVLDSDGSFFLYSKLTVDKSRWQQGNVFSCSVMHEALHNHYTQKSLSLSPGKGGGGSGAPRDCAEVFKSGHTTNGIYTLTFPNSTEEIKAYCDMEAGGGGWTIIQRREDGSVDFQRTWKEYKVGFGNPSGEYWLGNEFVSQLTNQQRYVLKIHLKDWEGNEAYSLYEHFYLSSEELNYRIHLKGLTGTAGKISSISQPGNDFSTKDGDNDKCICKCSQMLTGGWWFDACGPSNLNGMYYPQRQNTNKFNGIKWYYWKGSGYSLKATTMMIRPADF
T3 sequence (chain, as listed by the source limits assumed): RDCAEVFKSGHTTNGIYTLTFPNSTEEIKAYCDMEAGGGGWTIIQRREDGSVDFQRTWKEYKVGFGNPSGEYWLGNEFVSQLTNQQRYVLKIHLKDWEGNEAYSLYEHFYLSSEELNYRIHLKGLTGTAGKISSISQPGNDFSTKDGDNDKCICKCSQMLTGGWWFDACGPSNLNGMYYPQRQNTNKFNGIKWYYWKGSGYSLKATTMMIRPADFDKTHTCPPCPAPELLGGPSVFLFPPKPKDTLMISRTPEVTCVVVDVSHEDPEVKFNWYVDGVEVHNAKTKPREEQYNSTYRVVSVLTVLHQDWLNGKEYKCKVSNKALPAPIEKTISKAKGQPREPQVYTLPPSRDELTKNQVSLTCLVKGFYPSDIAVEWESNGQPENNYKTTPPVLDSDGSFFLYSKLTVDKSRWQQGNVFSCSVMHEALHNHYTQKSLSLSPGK
T5 sequence (chain, as listed by the source limits assumed): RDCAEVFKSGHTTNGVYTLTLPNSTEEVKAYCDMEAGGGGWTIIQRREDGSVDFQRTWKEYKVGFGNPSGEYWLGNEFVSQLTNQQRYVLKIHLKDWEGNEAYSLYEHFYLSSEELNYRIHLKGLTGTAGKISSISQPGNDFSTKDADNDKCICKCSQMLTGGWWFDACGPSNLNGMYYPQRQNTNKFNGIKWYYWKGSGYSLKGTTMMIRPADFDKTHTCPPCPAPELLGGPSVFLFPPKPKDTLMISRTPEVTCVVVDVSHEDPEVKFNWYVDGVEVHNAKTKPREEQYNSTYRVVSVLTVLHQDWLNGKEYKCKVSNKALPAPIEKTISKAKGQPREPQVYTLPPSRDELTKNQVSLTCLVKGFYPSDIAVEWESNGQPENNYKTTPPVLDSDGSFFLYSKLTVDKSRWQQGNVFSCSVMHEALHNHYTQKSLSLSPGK

B1: hTie-2-mFc (Fc fusion)
chain: AMDLILINSLPLVSDAETSLTCIASGWRPHEPITIGRDFEALMNQHQDPLEVTQDVTREWAKKVVWKREKASKINGAYFCEGRVRGEAIRIRTMKMRQQASFLPATLTMTVDKGDNVNISFKKVLIKEEDAVIYKNGSFIHSVPRHEVPDILEVHLPHAQPQDAGVYSARYIGGNLFTSAFTRLIVRRCEAQKWGPECNHLCTACMNNGVCHEDTGECICPPGFMGRTCEKACELHTFGRTCKERCSGQEGCKSYVFCLPDPYGCSCATGWKGLQCNEACHPGFYGPDCKLRCSCNNGEMCDRFQGCLCSPGWQGLQCEREGIPRMTPKIVDLPDHIEVNSGKFNPICKASGWPLPTNEEMTLVKPDGTVLHPKDFNHTDHFSVAIFTIHRILPPDSGVWVCSVNTVAGMVEKPFNISVKVLPKPLNAPNVIDTGHNFAVINISSEPYFGDGPIKSKKLLYKPVNHYEAWQHIQVTNEIVTLNYLEPRTEYELCVQLVRRGEGGEGHPGPVRRFTTASIGLPPPRGLNLLPKSQTTLNLTWQPIFPSSEDDFYVEVERRSVQKSDQQNIKVPGNLTSVLLNNLHPREQYVVRARVNTKAQGEWSEDLTAWTLSDILPPQPENIKISNITHSSAVISWTILDGYSISSITIRYKVQGKNEDQHVDVKIKNATIIQYQLKGLEPETAYQVDIFAENNIGSSNPAFSHELVTLPESQAPADLGGGKGPGEPRGPTIKPCPPCKCPAPNLLGGPSVFIFPPKIKDVLMISLSPIVTCVVVDVSEDDPDVQISWFVNNVEVHTAQTQTHREDYNSTLRVVSALPIQHQDWMSGKEFKCKVNNKDLPAPIERTISKPKGSVRAPQVYVLPPPEEEMTKKQVTLTCMVTDFMPEDIYVEWTNNGKTELNYKNTEPVLDSDGSYFMYSKLRVEKKNWVERNSYSCSVVHEGLHNHHTTKSFSRTPGK
notes: also called hTie-2-mFc-ecto; human Tie-2 conjugated to mouse IgG
On to B1, for which, in the assay with hAng-1-WT [1], the “Percent of Negative Control Binding” value turned out to be 42%. Also, the “RU (average)” value with hAng-1-WT [2] came to 71 RU.

B2: H1H685P (antibody, V domains shown)
VH: EVQLVESGGGLVQPGGSLRLSCAASGFTFSSYDIHWVRQATGKGLEWVSAIGPAGDTYYPGSVKGRFTISRENAKNSLYLQMNSLRAGDTAVYYCARGLITFGGLIAPFDYWGQGTLVTVSS
VL: EIVLTQSPGTLSLSPGERATLSCRASQSVSSTYLAWYQQKPGQAPRLLIYGASSRATGIPDRFSGSGSGTDFTLTISRLEPEDFAVYYCQHYDNSQTFGQGTKVEIK
B2: the Kd (usually the concentration at which binding is half-saturated) in assay [3] was determined as 0.148 nM; in assay [4], 0.0651 nM; in [5], 0.0939 nM. The T1/2 came out at 2.14 h in assay [3], 3.47 h in assay [4] and 1.07 h in assay [5].

B3: H1H691P (antibody, human IgG1, V domains shown)
VH: EVQLVESGGGLVQPGRSLRLSCAASGFTFDDYAMHWVRQAPGKGLEWVSGISWNSGDIGYADSVKGRFTISRDNAKNSLYLQMNSLRAQDTALYYCAKAYGDYYYFYGMDVWGQGTTVTVS
VL: B2 VL with T32S, Y50F, G51S, H91Q, Q96L, Q100G
notes: Human IgG1
Regarding B3, the “Percent Blocking of Ang-2FD Binding to Tie-2” value (“Percent Blocking” below) is 97.4% with Human Ang-2FD-hFc, 96.7% with Mouse Ang-2FD-hFc and 99.8% with Monkey Ang-2FD-hFc.

B4: H2M743N (antibody, V domains shown)
VH: EVQLLESGGGLVQPGGSLRLSCAASGFTFRKYAMSWVRQAPGKGLEWVSVISVSGGNTYYADSVKGRFTISRDNSKNTLYLQLNSLRAEDTAVYYCAKDLTDIVLMVYVDYWGQGTLVTVSS
VL: DIQMTQSPSSVSASVGDRVTITCRASQDIDRWLAWYQQKPGKAPKLLIYAASSLQSGVPSRFSGSGSGTDFTLTISTLQPEDFATYYCQQANSLPFTFGGGTKVEIK
notes: also called H1M743N
For B4, in the assay with Biotin-hBA2 [6], the IC50 (as a rule, the concentration that inhibits the measured activity by half) was 0.011 nM.

B5: H1H690P (antibody, human IgG1, V domains shown)
VH: EVQLVESGGGLVQPGESLRLSCAASGFTFSSYAMSWVRQGPGKGLEWVSSITGSGDTTYYADSVKGRFTISRDNSKNTLYLHMNSLRAEDTAVYYCAKDFLDYSTYLAFDLWGQGTMVTVSS
VL: EIVLTQSPATLSLSPGERATLSCRASQSVSSYLTWYQQKPGQAPRLLSYDASNRATGIPARFSGSGSGTDFTLTISSLEPEDFAVYYCQQRSNWPLTFGGGTKVEIK
notes: Human IgG1
Regarding B5, the IC50 with Biotin-hBA2 [7] worked out at 0.017 nM. Also, the “Percent Blocking” value turned out to be 97.2% with Human Ang-2FD-hFc, 98% in the assay with Mouse Ang-2FD-hFc and 99.6% with Monkey Ang-2FD-hFc.

B6: H2M750N (antibody, V domains shown)
VH: QVKLVESGGGVVQPGRSLRVSCAASGFTFSSYGMHWVRQAPGKGLEWLAIIWYDGDNKYYSDSVKGRFTISRDNSKNTLYLQMNSLRAEDTAEYYCVRDASIASRFLDYWGQGTLVTVSS
VL: DIQMTQSPSSLSASIGDRVTITCRATQDINNYLAWFQQKPGKAPKSLIYATSNLQSGVPSKFSGSGSGTDYTLTISSLQPEDFSTYYCQQYHSYPLTFGGGTKVEIK
notes: also called H1M750N; H1M750
Consider B6, for which, in the assay with Biotin-hBA2 [6], it took 0.00883 nM to reach half-maximal inhibition (IC50).

B7: H2M744N (antibody, V domains shown)
VH: QVQLVQSGVEVKKPGASVKVSCKTSGYTFSNNGFSWVRQAPGQGLEWLGWISGYNGNTNYAQKFQGRVTMTTDTSTSTAYMELRTLRSDDTAVYYCARDQDYSNFHWLDPWGQGTLVTVAS
VL: DIQMTQSPSSVSASVGDRVIITCRASQGLSSWLAWYQQKPGTAPKLLIHSASSLQTGVPSRFSGSGSGTEFALTINSLQPEDFGTYYCQQANSFPLTFGGGTRVEIK
notes: also called H1M744N; H1M744
In the assay with Biotin-hBA2 [6], B7 returned an IC50 of 0.0114 nM.

B8: H1H695P (antibody, human IgG1, V domains shown)
VH: QVQLVESGGGVVQPGRSLRLSCAASGFTFSSYGMHWVRQAPGKGLEWVAVMWYDETNKYYADSVKGRFTISRDNSKNTLYLQMNSLRAEDTAVYYCARYSGYEDYYHGMDVWGQGTTVTVS
VL: EIVMTQSPATPSVSPGERATLSCRASQSISSNLAWYQQKPGQAPRLLIYGASTRATGIPARFSGSGSGTEFTLTISSLQSEDFAVYYCQHYNNWITFGQGTRLEIK
notes: Human IgG1
On to B8, for which the IC50 in the assay with Biotin-hBA2 [7] came to 0.059 nM. Also, the entries for the “Percent Blocking” value with Human Ang-2FD-hFc and with Mouse Ang-2FD-hFc were 98.4% and 97.6%, respectively.

B9: H1M749N (antibody, V domains shown)
VH: QVQLVESGGGVVQPGRSLRLSCAASGFTFSSYGMHWVRQAPGKGLEWVAVIWYDEFNKYYADSVKGRFTISRDNSKNTLYLQMNSLRAEDTAVYYCARERESGYSYGFDYWGQGTLVTVSS
VL: B8 VL with P11L, S26G, I29V, H90Q, I95W, R102K, L103V
notes: also called H2M749N
B9 yielded an IC50 with Biotin-hBA2 [6] of 0.00643 nM.

B10: H1H704P (antibody, V domains shown)
VH: QVQLVESGGDVVQPGRSLRLSCAASGFTFSSYGMHWVRQAPGKGLEWVAIIWYDGSNKYYADSVKGRFTISRDNSKNTLYLQMNSLRVEDTAVYSCARDFSISSRHFDYWGQGTLVTVSS
VL: DIQMTQSPSSLSASVGDRVTITCRASQAINNYLAWFQQKPGKAPKSLIYATSNLQSGVPSQFSGSGSGTDYTLTISSLQPEDFATYYCQQYYIYPITFGQGTRLEIK
notes: Human IgG1
B10 yielded an IC50 in the assay with Biotin-hBA2 [7] of 0.056 nM. For the same molecule, the “Percent Blocking” value stood at 97% with Human Ang-2FD-hFc and 41.8% with Mouse Ang-2FD-hFc.
